Reference: publication PMC3458822, “Dimerization of DOCK2 Is Essential for DOCK2-Mediated Rac Activation and Lymphocyte Migration” (PLoS ONE, 2012)

Tests used:
[1] = biological target: murine DOCK2 DHR-2 domain, wild type (murine); test: SEC; Superdex 200 10/300 GL, 20 mM Tris-HCl pH 8.0, 250 mM NaCl, 5 mM 2-mercaptoethanol, 1 ml/minute, 20°C; size estimated against protein standards
[2] = biological target: the molecule itself; test: crystal structure; human DOCK2 DHR-2 in complex with Rac1, PDB 3B13

| stoichiometry N [1] | Molecule | stoichiometry N [2] |
| --- | --- | --- |
| 2 | murine DOCK2 DHR-2 domain, wild type (domain or fragment) |  |
|  | human DOCK2 DHR-2 domain (domain or fragment, DOCK2, human, DHR-2 domain (lobes A, B and C) as crystallised with Rac1; Dimerises through lobe A in the crystal) SKDNRMSCTVNLLNFYKDNNREEMYIRYLYKLRDLHLDCDNYTEAAYTLLLHTWLLKWSDEQCASQVMQTGQQHPQTHRQLKETLYETIIGYFDKGKMWEEAISLCKELAEQYEMEIFDYELLSQNLIQQAKFYESIMKILRPKPDYFAVGYYGQGFPSFLRNKVFIYRGKEYERREDFQMQLMTQFPNAEKMNTTSAPGDDVKNAPGQYIQCFTVQPVLDEHPRFKNKPVPDQIINFYKSNYVQRFHYSRPVRRGTVDPENEFASMWIERTSFVTAYKLPGILRWFEVVHMSQTTISPLENAIETMSTANEKILMMINQYQSDETLPINPLSMLLNGIVDPAVMGGFAKYEKAFFTEEYVRDHPEDQDKLTHLKDLIAWQIPFLGAGIKIHEKRVSDNLRPFHDRMEECFKNLKMKVEKEYGVREM | 2 |
